This note sets out measurements from patent publication US11236163.

Assay [1] addresses T1, recombinant human LAG-3 fusion protein (human, UniProt P18627).
T1 chain: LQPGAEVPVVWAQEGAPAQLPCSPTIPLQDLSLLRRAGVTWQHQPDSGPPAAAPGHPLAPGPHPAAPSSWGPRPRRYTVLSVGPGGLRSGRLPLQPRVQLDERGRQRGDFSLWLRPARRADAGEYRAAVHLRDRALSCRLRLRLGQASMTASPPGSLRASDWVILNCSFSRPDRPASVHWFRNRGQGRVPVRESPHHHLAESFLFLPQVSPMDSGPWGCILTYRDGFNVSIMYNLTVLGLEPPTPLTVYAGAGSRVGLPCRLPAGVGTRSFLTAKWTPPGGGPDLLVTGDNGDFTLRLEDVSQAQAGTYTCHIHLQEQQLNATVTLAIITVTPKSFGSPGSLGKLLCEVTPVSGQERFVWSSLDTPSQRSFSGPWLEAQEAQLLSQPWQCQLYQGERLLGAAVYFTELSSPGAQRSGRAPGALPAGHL
Briefly: SPR. (In general: In SPR one partner is held on a chip, and binding of the other changes the refractive index at the surface.)

Assay [2] deals with T2, human LAG-3 (cell surface) (human, UniProt P18627).
T2 chain: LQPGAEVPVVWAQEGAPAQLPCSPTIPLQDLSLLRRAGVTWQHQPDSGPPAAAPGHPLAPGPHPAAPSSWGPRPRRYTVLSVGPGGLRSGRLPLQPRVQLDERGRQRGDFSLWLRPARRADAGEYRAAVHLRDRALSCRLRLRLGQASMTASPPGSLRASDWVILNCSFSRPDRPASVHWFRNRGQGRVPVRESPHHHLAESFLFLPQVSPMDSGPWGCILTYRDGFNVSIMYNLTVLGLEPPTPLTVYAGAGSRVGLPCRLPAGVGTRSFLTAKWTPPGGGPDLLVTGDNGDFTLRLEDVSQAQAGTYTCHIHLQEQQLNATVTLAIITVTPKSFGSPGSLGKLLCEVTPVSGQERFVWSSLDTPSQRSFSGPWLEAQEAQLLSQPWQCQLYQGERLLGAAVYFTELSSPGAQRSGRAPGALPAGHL
Briefly: FACS, CHO-human LAG-3.

B1: 17E5 (antibody)
chain 1: not shown
chain 2: EIVLTQSPATLSLSPGERATLSCRASQSVSSYLAWYQQKPGQAPRLLIYDASNRATGIPARFSGSGSGTDFTLTISSLEPEDFAVYYCQQRSNWPITFGQGTRLEIK
In general, Kd refers to a measure of binding affinity in units of concentration. For orientation: EC50 means the concentration that produces a half-maximal response. Lower therefore signals a more potent agent. Consider B1, for which, in assay [1], the Kd worked out at 4.53 nM. The molecule also had an EC50 in assay [2] of 12.3 nM.
